# Laboratory results from the supplement of paper PMC11246515.
# ± gives the standard deviation of the averaged measurements.
# Test: total protein half-life in vivo (active degradation + dilution); higher = more stable protein
# [1] = wild type E. coli NCM3722, growth: C-lim chemostat, doubling time 6 h
# [2] = wild type E. coli NCM3722, growth: C-lim chemostat, doubling time 12 h
# [3] = E. coli NCM3722 delta-hslV, growth: N-lim chemostat, doubling time 6 h
# [4] = E. coli NCM3722 delta-clpP delta-lon delta-hslV, growth: N-lim chemostat, doubling time 6 h
# [5] = E. coli NCM3722 delta-clpP, growth: N-lim chemostat, doubling time 6 h
# [6] = E. coli NCM3722 delta-lon, growth: N-lim chemostat, doubling time 6 h
# [7] = E. coli NCM3722 delta-smpB, growth: N-lim chemostat, doubling time 6 h
# [8] = wild type E. coli NCM3722, growth: C-lim chemostat, doubling time 3 h
# [9] = wild type E. coli NCM3722, growth: N-lim chemostat, doubling time 6 h
# [10] = wild type E. coli NCM3722, growth: N-lim chemostat, doubling time 12 h
# [11] = wild type E. coli NCM3722, growth: P-lim chemostat, doubling time 6 h
# [12] = wild type E. coli NCM3722, growth: P-lim chemostat, doubling time 12 h
Sequence,total protein half-life in vivo [1],total protein half-life in vivo [2],total protein half-life in vivo [3],total protein half-life in vivo [4],total protein half-life in vivo [5],total protein half-life in vivo [6],total protein half-life in vivo [7],total protein half-life in vivo [8],total protein half-life in vivo [9],total protein half-life in vivo [10],total protein half-life in vivo [11],total protein half-life in vivo [12]
MRIRYGWELALAALLVIEIVAFGAINPRMLDLNMLLFSTSDFICIGIVALPLTMVIVSGGIDISFGSTIGLCAIALGVLFQSGVPMPLAILLTLLLGALCGLINAGLIIYTKVNPLVITLGTLYLFAGSALLLSGMAGATGYEGIGGFPMAFTDFANLDVLGLPVPLIIFLICLLVFWLWLHKTHAGRNVFLIGQSPRVALYSAIPVNRTLCALYAMTGLASAVAAVLLVSYFGSARSDLGASFLMPAITAVVLGGANIYGGSGSIIGTAIAVLLVGYLQQGLQMAGVPNQVSSALSGALLIVVVVGRSVSLHRQQIKEWLARRANNPLP [P0AFS1],6.11 h,13.4 h,–,–,–,–,–,–,–,–,–,–
MLQLLLAVFIGGGTGSVARWLLSMRFNPLHQAIPLGTLTANLIGAFIIGIGFAWFSRMTNIDPVWKVLITTGFCGGLTTFSTFSAEVVFLLQEGRFGWALLNVFVNLLGSFAMTALAFWLFSASTAH,–,–,5.83 h,–,–,–,–,–,–,–,–,–
MSMIKSYAAKEAGGELEVYEYDPGELRPQDVEVQVDYCGICHSDLSMIDNEWGFSQYPLVAGHEVIGRVVALGSAAQDKGLQVGQRVGIGWTARSCGHCDACISGNQINCEQGAVPTIMNRGGFAEKLRADWQWVIPLPENIDIESAGPLLCGGITVFKPLLMHHITATSRVGVIGIGGLGHIAIKLLHAMGCEVTAFSSNPAKEQEVLAMGADKVVNSRDPQALKALAGQFDLIINTVNVSLDWQPYFEALTYGGNFHTVGAVLTPLSVPAFTLIAGDRSVSGSATGTPYELRKLMRFAARSKVAPTTELFPMSKINDAIQHVRDGKARYRVVLKADF,6.43 ± 1.3 h,11 ± 1.4 h,–,5.793 ± 0.025 h,5.68 ± 0.17 h,5.65 ± 0.11 h,5.22 ± 1.4 h,2.17 ± 0.36 h,5.42 ± 0.12 h,10.8 ± 0.24 h,5.84 ± 0.26 h,11.9 ± 0.73 h
MPRGLELLIAQTILQGFDAQYGRFLEVTSGAQQRFEQADWHAVQQAMKNRIHLYDHHVGLVVEQLRCITNGQSTDAAFLLRVKEHYTRLLPDYPRFEIAESFFNSVYCRLFDHRSLTPERLFIFSSQPERRFRTIPRPLAKDFHPDHGWESLLMRVISDLPLRLRWQNKSRDIHYIIRHLTETLGTDNLAESHLQVANELFYRNKAAWLVGKLITPSGTLPFLLPIHQTDDGELFIDTCLTTTAEASIVFGFARSYFMVYAPLPAALVEWLREILPGKTTAELYMAIGCQKHAKTESYREYLVYLQGCNEQFIEAPGIRGMVMLVFTLPGFDRVFKVIKDRFAPQKEMSAAHVRACYQLVKEHDRVGRMADTQEFENFVLEKRHISPALMELLLQEAAEKITDLGEQIVIRHLYIERRMVPLNIWLEQVEGQQLRDAIEEYGNAIRQLAAANIFPGDMLFKNFGVTRHGRVVFYDYDEICYMTEVNFRDIPPPRYPEDELASEPWYSVSPGDVFPEEFRHWLCADPRIGPLFEEMHADLFRADYWRALQNRIREGHVEDVYAYRRRQRFSVRYGEMLF,6.35 ± 0.23 h,10.7 ± 0.2 h,–,4.97 h,3.61 h,–,–,–,–,–,–,11.9 h
MANYFIDRPVFAWVLAIIMMLAGGLAIMNLPVAQYPQIAPPTITVSATYPGADAQTVEDSVTQVIEQNMNGLDGLMYMSSTSDAAGNASITLTFETGTSPDIAQVQVQNKLQLAMPSLPEAVQQQGISVDKSSSNILMVAAFISDNGSLNQYDIADYVASNIKDPLSRTAGVGSVQLFGSEYAMRIWLDPQKLNKYNLVPSDVISQIKVQNNQISGGQLGGMPQAADQQLNASIIVQTRLQTPEEFGKILLKVQQDGSQVLLRDVARVELGAEDYSTVARYNGKPAAGIAIKLAAGANALDTSRAVKEELNRLSAYFPASLKTVYPYDTTPFIEISIQEVFKTLVEAIILVFLVMYLFLQNFRATIIPTIAVPVVILGTFAILSAVGFTINTLTMFGMVLAIGLLVDDAIVVVENVERVIAEDKLPPKEATHKSMGQIQRALVGIAVVLSAVFMPMAFMSGATGEIYRQFSITLISSMLLSVFVAMSLTPALCATILKAAPEGGHKPNALFARFNTLFEKSTQHYTDSTRSLLRCTGRYMVVYLLICAGMAVLFLRTPTSFLPEEDQGVFMTTAQLPSGATMVNTTKVLQQVTDYYLTKEKDNVQSVFTVGGFGFSGQGQNNGLAFISLKPWSERVGEENSVTAIIQRAMIALSSINKAVVFPFNLPAVAELGTASGFDMELLDNGNLGHEKLTQARNELLSLAAQSPNQVTGVRPNGLEDTPMFKVNVNAAKAEAMGVALSDINQTISTAFGSSYVNDFLNQGRVKKVYVQAGTPFRMLPDNINQWYVRNASGTMAPLSAYSSTEWTYGSPRLERYNGIPSMEILGEAAAGKSTGDAMKFMADLVAKLPAGVGYSWTGLSYQEALSSNQAPALYAISLVVVFLALAALYESWSIPFSVMLVVPLGVVGALLATDLRGLSNDVYFQVGLLTTIGLSAKNAILIVEFAVEMMQKEGKTPIEAIIEAARMRLRPILMTSLAFILGVLPLVISHGAGSGAQNAVGTGVMGGMFAATVLAIYFVPVFFVVVEHLFARFKKA,–,–,5.41 ± 0.53 h,6.822 ± 0.011 h,–,5.03 ± 0.059 h,–,–,5.55 h,12.5 ± 3.7 h,5.7 ± 0.79 h,12.5 ± 1.6 h
MILSAFSLEGKVAVVTGCDTGLGQGMALGLAQAGCDIVGINIVEPTETIEQVTALGRRFLSLTADLRKIDGIPALLDRAVAEFGHIDILVNNAGLIRREDALEFSEKDWDDVMNLNIKSVFFMSQAAAKHFIAQGNGGKIINIASMLSFQGGIRVPSYTASKSGVMGVTRLMANEWAKHNINVNAIAPGYMATNNTQQLRADEQRSAEILDRIPAGRWGLPSDLMGPIVFLASSASDYVNGYTIAVDGGWLAR,4.15 ± 0.16 h,7.26 ± 0.34 h,2.8 ± 0.69 h,3.57 ± 0.82 h,2.06 ± 0.13 h,2.48 ± 0.36 h,2.31 ± 0.11 h,2.75 ± 0.077 h,2.385 ± 0.018 h,3.87 ± 0.81 h,5.03 ± 0.081 h,10.5 ± 0.36 h
MTEVRRRGRPGQAEPVAQKGAQALERGIAILQYLEKSGGSSSVSDISLNLDLPLSTTFRLLKVLQAADFVYQDSQLGWWHIGLGVFNVGAAYIHNRDVLSVAGPFMRRLMLLSGETVNVAIRNGNEAVLIGQLECKSMVRMCAPLGSRLPLHASGAGKALLYPLAEEELMSIILQTGLQQFTPTTLVDMPTLLKDLEQARELGYTVDKEEHVVGLNCIASAIYDDVGSVVAAISISGPSSRLTEDRFVSQGELVRDTARDISTALGLKAHP [P0ACN4],5.64 ± 0.18 h,11 ± 0.97 h,5.12 ± 0.34 h,–,5.13 ± 0.62 h,4.42 ± 0.94 h,4.4 ± 0.4 h,2.79 ± 0.13 h,4.91 ± 0.23 h,9.46 ± 0.2 h,5.44 ± 0.41 h,11.1 ± 0.81 h
MANYFNTLNLRQQLAQLGKCRFMGRDEFADGASYLQGKKVVIVGCGAQGLNQGLNMRDSGLDISYALRKEAIAEKRASWRKATENGFKVGTYEELIPQADLVINLTPDKQHSDVVRTVQPLMKDGAALGYSHGFNIVEVGEQIRKDITVVMVAPKCPGTEVREEYKRGFGVPTLIAVHPENDPKGEGMAIAKAWAAATGGHRAGVLESSFVAEVKSDLMGEQTILCGMLQAGSLLCFDKLVEEGTDPAYAEKLIQFGWETITEALKQGGITLMMDRLSNPAKLRAYALSEQLKEIMAPLFQKHMDDIISGEFSSGMMADWANDDKKLLTWREETGKTAFETAPQYEGKIGEQEYFDKGVLMIAMVKAGVELAFETMVDSGIIEESAYYESLHELPLIANTIARKRLYEMNVVISDTAEYGNYLFSYACVPLLKPFMAELQPGDLGKAIPEGAVDNGQLRDVNEAIRSHAIEQVGKKLRGYMTDMKRIAVAG,5.6 ± 0.11 h,10.3 ± 0.33 h,3.31 ± 0.22 h,3.97 ± 0.51 h,3.59 ± 0.64 h,3.72 ± 0.042 h,3.46 ± 0.06 h,3.035 ± 0.013 h,3.472 ± 0.017 h,5.36 ± 0.15 h,5.67 ± 0.26 h,11.9 ± 0.2 h
